How the values were obtained:
[1] = molecular target: TCR/CD3 complex (human (endogenous in Jurkat)) (UniProt P07766); test: recruitment to antibody-coated beads (confocal microscopy); CD6-GFP Jurkat T cells on fibronectin-coated coverslips with 4.5 um anti-CD3-coated (Dynal CD3) or fibronectin-coated beads; live cells at RT; CD6-GFP intensity at bead contact against the opposite side of the cell
[2] = molecular target: TCR/CD3 complex (human (endogenous in Jurkat)) (UniProt P07766); test: FRAP on micropatterned antibody spots; CD6-GFP Jurkat T cells on spots of 100, 10 or 1% anti-CD3 surrounded by fibronectin; 37 C; circular ROI of 2.1 um on spots and on surrounding fibronectin; single exponential fit

UniProt P07766, sequence (P07766 whole entry, looked up, one chain of several): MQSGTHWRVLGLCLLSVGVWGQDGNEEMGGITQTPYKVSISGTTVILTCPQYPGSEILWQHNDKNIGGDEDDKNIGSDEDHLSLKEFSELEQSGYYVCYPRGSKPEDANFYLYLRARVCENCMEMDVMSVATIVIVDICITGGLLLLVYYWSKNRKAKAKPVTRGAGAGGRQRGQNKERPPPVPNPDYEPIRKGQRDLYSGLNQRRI

fold enrichment at αCD3-coated beads against fibronectin-coated beads [1]: 3 fold
fraction of CD6-GFP immobilized on 10 and 100% αCD3 spots [2]: 30%
B1: CD6-GFP (receptor)
chain: HPSPAPPDQLNTSSAESELWEPGERLPVRLTNGSSSCSGTVEVRLEASWEPACGALWDSRAAEAVCRALGCGGAEAASQLAPPTPELPPPPAAGNTSVAANATLAGAPALLCSGAEWRLCEVVEHACRSDGRRARVTCAENRALRLVDGGGACAGRVEMLEHGEWGSVCDDTWDLEDAHVVCRQLGCGWAVQALPGLHFTPGRGPIHRDQVNCSGAEAYLWDCPGLPGQHYCGHKEDAGAVCSEHQSWRLTGGADRCEGQVEVHFRGVWNTVCDSEWYPSEAKVLCQSLGCGTAVERPKGLPHSLSGRMYYSCNGEELTLSNCSWRFNNSNLCSQSLAARVLCSASRSLHNLSTPEVPASVQTVTIESSVTVKIENKESRELMLLIPSIVLGILLLGSLIFIAFILLRIKGKYALPVMVNHQHLPTTIPAGSNSYQPVPITIPKEVFMLPIQVQAPPPEDSDSGSDSDYEHYDFSAQPPVALTTFYNSQRHRVTDEEVQQSRFQMPPLEEGLEELHASHIPTANPGHCITDPPSLGPQYHPRSNSESSTSSGEDYCNSPKSKLPPWNPQVFSSERSSFLEQPPNLELAGTQPAFSAGPPADDSSSTSSGEWYQNFQPPPQPPSEEQFGCPGSPSPQPDSTDNDDYDDISAA

Reference: article PMC6189472
